Reference: article PMC3899027
Values joined by “and” are separate entries in the source; they are usually repeats but may differ in a detail not shown here. Identical values can stand only once.

How the values were obtained:
[1] = target: ExsG phosphorylated on Asp62 by phosphoramidate (Rhizobium NT-26); experiment: native MS; nESI-MS and IM-MS; 150 mM ammonium acetate pH 8, 0.1 mM DTT; 30-40 μM (monomer); native, phosphoramidate-treated or AMP-PNP-treated samples
[2] = target: ExsG receiver domain (ExsG-REC, residues 1-129) (Rhizobium NT-26); experiment: SEC; Superose 6; 50 mM Tris-HCl pH 8.0, 30-500 mM NaCl, 1 mM βME; peak positions invariant irrespective of loading concentrations
[3] = target: ExsG (wild-type, full-length) (Rhizobium NT-26); experiment: native MS; nESI-MS at raised ionic strength: 400, 600 and 800 mM ammonium acetate pH 8, 0.1 mM DTT; 30-40 μM (monomer); disassembly of the hexamer
[4] = target: ExsG (wild-type, full-length) (Rhizobium NT-26); experiment: native MS; nESI-MS and IM-MS; 150 mM ammonium acetate pH 8, 0.1 mM DTT; 30-40 μM (monomer); native, phosphoramidate-treated or AMP-PNP-treated samples
[5] = target: ExsG (wild-type, full-length) (Rhizobium NT-26); experiment: AUC; sedimentation velocity; 50 mM Tris-HCl pH 8.0, 250 mM or 30 mM NaCl; seven concentrations 0.2-2 mg/ml; 40,000 rpm, 20°C; c(s) in SEDFIT
[6] = target: ExsG (wild-type, full-length) (Rhizobium NT-26); experiment: AUC; sedimentation equilibrium; 50 mM Tris-HCl pH 8.0, 250 mM NaCl; six concentrations 0.1-1.5 mg/ml; 7, 11, 16, 24 krpm, 20°C; SEDFIT and SEDPHAT
[7] = target: ExsG (wild-type, full-length) (Rhizobium NT-26); experiment: native MS; nESI-MS and IM-MS; 150 mM ammonium acetate pH 8, 0.1 mM DTT; 30-40 μM (monomer); native, phosphoramidate-treated or AMP-PNP-treated samples; remark: listed apart in the source
[8] = target: AgR (Rhizobium NT-26); experiment: SEC; Superose 6; 50 mM Tris-HCl pH 8.0, 30-500 mM NaCl, 1 mM βME; peak positions invariant irrespective of loading concentrations
[9] = target: BphP1 kinase core (BphP1-HK, residues 462-703) (Rhizobium NT-26); experiment: as above

A stoichiometry N [1] of 6 was found for “ExsG phosphorylated on Asp62 by phosphoramidate (enzyme)” in this work.
A stoichiometry N [2] of 2 was found for “ExsG receiver domain (ExsG-REC, residues 1-129) (domain or fragment)” in this work.
In the case of ExsG (wild-type, full-length) (enzyme), the stoichiometry N [3] is reported as 2 and 4, the stoichiometry N [4] is reported as 6 and the stoichiometry N [5] is reported as 6. It also gave a stoichiometry N [6] of 6 and a stoichiometry N [7] of 2.
A stoichiometry N [8] of 2 was found for AgR (natural protein) in this work.
A stoichiometry N [9] of 2 was found for “BphP1 kinase core (BphP1-HK, residues 462-703) (domain or fragment)” in this work.
